In patent US9388406B2, “System useful for reporting protein-protein interactions in the bacterial periplasm” (Cornell University, priority 2008, dated 2016):

Assays:
scFv-GCN4 = assay: split β-lactamase protein complementation assay in the periplasm, MBC on ampicillin, scFv-GCN4 with antigen; format: cell-based; settings: E. coli MC4100; antigen on α Bla fragment paired with scFv-GCN4; versus α-Jun negative control
Protocol: (§1) E. coli MC4100 cells were co-transformed with plasmids pDMB-P1-ωBLA (CmR) and aGS-P2 (KanR), where P1 and P2 represent proteins of interest. Cells were grown overnight at 37° C. in LB medium containing 20 μg/mL chloramphenicol (Cm) and 50 μg/mL kanamycin (Kan). Screening of cells on LB agar was performed by first normalizing overnight cultures by OD600 and then spotting 5 μL, of serially diluted (10-10^6-fold) cells on LB agar plates with […] of ampicillin (Amp). In all cases, the plates were incubated 16 h at 37° C. and then imaged using a ChemiDoc System (BioRad). […] The minimum bacteriocidal concentration was determined as the minimum Amp concentration at which no colonies appeared on the plates.
(§2) It was hypothesized that detecting protein interactions in the periplasm can be used to engineer antibody fragments with in vivo activity in the periplasm. […] The approach used in the present invention was to fuse known interacting protein domains to genes encoding two split β-lactamase fragments using a two-plasmid system (Wehrman, T., et al., “Protein-protein Interactions Monitored in Mammalian Cells Via Complementation of Beta-lactamase Enzyme Fragments,” Proc Natl Acad Sci USA 99:3469-3474 (2002), which is hereby incorporated by reference in its entirety)(see FIG. 2A). […]

Jun [1] = biological target: T1, Jun (Homo sapiens, UniProt P05412); settings: Fos/Jun leucine zippers; Pernelle et al. 1993; cited from earlier work
T1 sequence (P05412 280-308 limits assumed, species assumed): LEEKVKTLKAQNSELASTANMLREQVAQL

Jun [2] = biological target: T1, Jun; assay: split β-lactamase protein complementation assay in the periplasm, spot plating on ampicillin, Fos/Jun leucine zippers; format: cell-based; settings: Fos on ω fragment, Jun on α fragment of Bla; negative control GCN4
Protocol: as §1, §2

Row | Molecule | higher MBC (minimum bacteriocidal concentration) on ampicillin (scFv-GCN4) [fold] | KD of their interaction (Jun [1]) | ampicillin activity in the PCA (Jun [2])
1 | GCN4-PP: double proline mutant of the GCN4 leucine zipper with reduced homodimerization, antigen of scFv-GCN4 (protein, left off: small tags and cut ends) HPETLVKVKDAEDQLGARVGYIELDLNSGKILESFRPEERFPMMSTFKVLLCGAVLSRVDAGQEQLGRRIHYSQNDLVEYSPVTEKHLTDGMTVRELCSAAITMSDNTAANLLLTTIGGPKELTAFLHNMGDHVTRLDRWEPELNEAIPNDERDTTMPAAMATTLRKLLTGELLEPKVEELLPKNYHLENEVARL | 16 |  | 
2 | Fos: Fos leucine zipper, fused to the ω fragment of β-lactamase; interacts with Jun (protein) LQAETDQLEDEKSALQTEIANLLKEKEKLGGGGSGGGGSGGGGSNGRTLASRQQLIDWMEADKVAGPLLRSALPAGWFIADKSGAGERGSRGIIAALGPDGKPSRIVVIYTTGSQATMDERNRQIAEIGASLIKHW |  | nanomolar range | well above that of the negative control
